From patent publication US20240101959A1, “USE OF IL-2R-BETA-GAMMA AGONIST PEPTIDES IN CELL MANUFACTURING” (MEDIKINE, INC., priority 2022, published 2024)
Positions of bridges follow the written chain, without caps; N, C: chain ends. No end group written: not given here.

These binders were tested against T1, hu-IL-2Rβ subunit (human, UniProt P14784 27-240, limits assumed) (assay: phage ELISA competition assay).
T1 construct: also called human interleukin-2 receptor subunit β; CD122
T1 sequence (looked up): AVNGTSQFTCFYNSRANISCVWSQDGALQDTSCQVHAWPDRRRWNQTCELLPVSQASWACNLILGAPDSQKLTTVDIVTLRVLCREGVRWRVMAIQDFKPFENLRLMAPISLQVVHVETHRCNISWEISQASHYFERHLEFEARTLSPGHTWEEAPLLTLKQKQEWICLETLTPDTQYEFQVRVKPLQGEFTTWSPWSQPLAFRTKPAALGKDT

IC50, < 100 µM:
SLPCWMAQLGDLCELH [SEQ ID NO 181], WYPCHMAKLRELCDLD [SEQ ID NO 180], YYPCWMAQLGELCDLE [SEQ ID NO 129], AFFHDCFFAKAGDLCDFFDD [SEQ ID NO 568], WQREWRWFPCWMAKLGDMCDLD [SEQ ID NO 83], FYPCWMANLGELCDLDFLRELN [SEQ ID NO 122], SVVVNNWLPCWMAQLGELCDLD [SEQ ID NO 86], NNSREGWFPCWLAKLGDLCDLD [SEQ ID NO 128], IGSWWPCWMAQLGELCDLEPEL [SEQ ID NO 154], WYPCWRAQLGELCDLDPPIAVE [SEQ ID NO 167], YYPCWMARLGELCDLD [SEQ ID NO 85], HASWLPCWLAQLGELCDLEPNP [SEQ ID NO 123], WYPCWMAQLGELCDLDDHWPAM [SEQ ID NO 166], QGPVRLWYPCWMAQLGELCDLD [SEQ ID NO 145], WYPCWMAQPGELCDVD [SEQ ID NO 146], RDQYYPCWMAQLGELCDLDEVF [SEQ ID NO 169], NGAWYPCWMAQVGELCDLEERW [SEQ ID NO 124], VHDCFIAQVGDLCDLF [SEQ ID NO 556], SGHCYPCWLAGLGELCDLNCG [SEQ ID NO 172], WPCWAALGELCDLD [SEQ ID NO 557], WYPCYRARLGELCDLD [SEQ ID NO 82], WYPCWMAQLGELCDLDESTRLT (disulfide 4-13 (inferred)) [SEQ ID NO 153], VRPMGVWYPCWIAQLGELCDLV [SEQ ID NO 149], VRAWYPCWIARLGELCDLEVD [SEQ ID NO 178], YRGWLPCWRAKLGDLCDLGQPM (disulfide 7-16 (inferred)) [SEQ ID NO 151], EHFHDCFFAKVGDLCDIFGN [SEQ ID NO 571], EGFHDCFFAKVGDLCDIFGH [SEQ ID NO 570], EHFHDCFFAKVGDLCDKFGQ [SEQ ID NO 572], WYPCWMAQLGELCDLDAGARHL [SEQ ID NO 160], NRRWYPCWMAQLGELCDLDSRP [SEQ ID NO 119], WYPCWMAQLGELCDLGPTESNL [SEQ ID NO 157], LVDCFKVKVGELCDLF (not fully specified (bridges); cysteine pairing not given here) [SEQ ID NO 555], KSGWYPCWMAKLGELCDLEAQP [SEQ ID NO 161], QDGWLPCWMAQLGELCDLEYKR [SEQ ID NO 118], QDEAVEWFPCWMARLGELCDLE [SEQ ID NO 84], WLPCWMAQLGDLCDLEQYVPLP [SEQ ID NO 164], WYPCWIARLGELCDLETSGGFP [SEQ ID NO 171], KSNFFPCWIAQLGQLCDLEPET [SEQ ID NO 121], NEPEGGFYPCWLAQLGELCDLH (disulfide 10-19 (inferred)) [SEQ ID NO 136], VPRWYPCWIAQLGELCDLDSDD [SEQ ID NO 150], GEAWYPCWLARLGELCDMDPRV [SEQ ID NO 152], GTTWYPCWLAQLGELCDLDVLE [SEQ ID NO 155], KMHKAVWLPCWMAQVGELCDLE [SEQ ID NO 132], WYPCWGELCDLD [SEQ ID NO 560], RQAWYPCWMAQLGELCDLEAEL [SEQ ID NO 126], AKGWDTWKPCWLANLGELCDLE [SEQ ID NO 140], WYPCWMANLGELCDLEAERSPV [SEQ ID NO 168], WPCWALGELCDLD [SEQ ID NO 558], RGMCYPCWFARLGELCDLECDQ [SEQ ID NO 159], WPCWLGELCDLD [SEQ ID NO 559], HIFHDCFIAKVGDLCDLFHS [SEQ ID NO 573], DFFHDCFFAKVGDLCDFFFG [SEQ ID NO 569], YLPCWMAHLGELCDLDSPLKAR [SEQ ID NO 165], RVTWYPCWMAQLGELCDLEESV [SEQ ID NO 163], WYPCWMANLGELCDLEYPSWAQ [SEQ ID NO 158], WWPCWMAQLGDLCDLEETSGGT [SEQ ID NO 156], GPRFYPCWIAQLGELCDLEDMG [SEQ ID NO 162], WFPCWMAQLGEVCDLD [SEQ ID NO 179], KLQSWRWYPCWMAQLGELCDLD [SEQ ID NO 135], RDESAGYYPCWIAQLGELCDLE [SEQ ID NO 141], SWHAETWYPCWLAQVGELCDLD [SEQ ID NO 131]

IC50, < 10 µM:
YPCWMAQLGELCDL [SEQ ID NO 621], YPCHMAQLGELCDLWSWGDI (not fully specified (bridges); cysteine pairing not given here) [SEQ ID NO 620], VQYKKCWMAQLGDLCELDPS (not fully specified (bridges); cysteine pairing not given here) [SEQ ID NO 619]
